Here are results for one protein from FireProtDB (doi:10.1093/protein/10.5.575).

For this data set the following is noted: Bos taurus, pH 7, Absorbance, phosphate 0.1 M, reversible: yes, whole UniProt chain shown.

One may read the Tm as the temperature at the midpoint of the melting transition.

B1: Cytochrome b5 wild type, P00171 (protein)
chain: MAEESSKAVKYYTLEEIQKHNNSKSTWLILHYKVYDLTKFLEEHPGGEEVLREQAGGDATENFEDVGHSTDARELSKTFIIGELHPDDRSKITKPSESIITTIDSNPSWWTNWLIPAISALFVALIYHLYTSEN
Turning to B1, the “denaturant midpoint (higher = more stable)” value (30 °C, Urea) amounted to 7.1 M. For the same protein, where the note is “Thermal”, the melting temperature (Tm) came to 66.2 °C and the “unfolding enthalpy (van 't Hoff)” value was found to be 71.3 kcal/mol.
